This test deals with CCL8 (human chemokine panel) (human) (UniProt P80075).
Sequence of CCL8 (human chemokine panel) (human) (P80075 24-99): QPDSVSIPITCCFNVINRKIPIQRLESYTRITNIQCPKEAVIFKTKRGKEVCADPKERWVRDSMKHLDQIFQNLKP

On to “P672(1_44)-EVA1(29_94) hybrid evasin (from UniProt L7MC74;P0C8E7)”, for which the IC50 of neutralization of CCL8-induced THP-1 monocyte cell migration (EC80 dose of CCL8) turned out to be 48 nM.

These data come from publication PMC5912465.
